From patent US20190328887A1

Biological target: human oxytocin receptor (human) (UniProt P30559)
UniProt P30559, sequence (P30559 whole entry): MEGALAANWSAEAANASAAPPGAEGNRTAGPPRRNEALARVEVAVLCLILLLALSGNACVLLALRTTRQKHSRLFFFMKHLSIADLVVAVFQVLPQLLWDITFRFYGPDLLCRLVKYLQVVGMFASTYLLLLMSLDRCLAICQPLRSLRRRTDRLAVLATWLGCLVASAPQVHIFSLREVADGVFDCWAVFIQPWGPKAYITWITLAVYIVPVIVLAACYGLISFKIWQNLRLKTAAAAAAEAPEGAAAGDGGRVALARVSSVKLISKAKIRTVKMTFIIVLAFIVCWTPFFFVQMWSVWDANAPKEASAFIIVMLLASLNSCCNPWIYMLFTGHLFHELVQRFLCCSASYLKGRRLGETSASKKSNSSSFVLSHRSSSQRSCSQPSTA

Oxytocin (peptide)
EC50 Ca2+ production: 42 nM
